Data published in the supplement of paper PMC12042874.
± gives the uncertainty stated by the source.

Experiment: amyloid nucleation score (Sup35N fusion, yeast selection) (log enrichment); library NNK1; higher = more nucleation; inactive = no reads after selection
Method in brief: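 Yeast lacking psi expressed peptides of 20 random codons fused to Sup35N, received 100 μM copper sulfate for 24 hours, and were then grown for 7 days at 30°C on medium lacking adenine and uracil. Illumina sequencing of input and output plasmid inserts provided the reads. Nucleation scores are DiMSum log enrichments of output over input, centred on the mode of non-aggregating sequences. Any sequence with under 100 input reads was excluded.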

Row | Substance | amyloid nucleation score
1 | AKSLVDRKRVDNPWRFSVGW | 0.297 ± 0.51
2 | FASMIFSRASSSSDNIFFRN | 0.361 ± 0.22
3 | ILKSFLD | -0.071 ± 0.42
4 | GLMNLVSDRMSWLNEV | 0.485 ± 0.84
5 | CNWVIRNPYVGPIRSNVHGS | 0.124 ± 0.58
6 | NGVRYTVRLFMVLWR | -1.58 ± 2.4
7 | QRVGCKW | -0.771 ± 0.88
8 | RGGMF | -0.252 ± 0.67
9 | CGVNLKNLLTMLPDIGLHAV | 0.227 ± 0.25
10 | SHEFLSSVYQSVLIVSNF | -0.508 ± 0.58
11 | SYCLLIDLLLHSHVGLYSPM | 0.519 ± 0.33
12 | RNTVGYVSNTGVLYILTS | 6.24 ± 0.067
13 | ELTRGLWRFGAEWWATQQKT | 0.364 ± 0.31
14 | RIGFPSQSGLLVVAVLTQSA | -0.379 ± 0.43
15 | NTAFLAVLSNALMVGMYSLL | 0.606 ± 0.58
16 | SVNLNFLFAL | 8.056 ± 0.056
17 | HCMGGNLFLF | -0.463 ± 0.47
18 | TVRCG | 0.014 ± 0.97
19 | NMWGVGDVTGIF | 1.62 ± 0.59
20 | DYGAKDHFPIAITKEVMSLN | -0.394 ± 1.2
21 | AHRPGMFFRNYVVGDLS | -0.026 ± 0.48
22 | GKCFVVMWRVLGVDSVLMEV | -0.414 ± 0.25
23 | NVTIVGS | 1.02 ± 0.46
24 | VNYSNWFSMADSFRSRSFSV | -0.104 ± 1.1
25 | MWDGGKVNVFTFRAKRPCVG | -0.215 ± 1.7
26 | GVLGTGMRNCA | 0.277 ± 0.88

Row | Substance | amyloid nucleation score
27 | SIPIVL | 0.267 ± 0.35
28 | KKRPPAPSMEVRLGARMVAG | 0.324 ± 1
29 | NRDQRKGIVFTWAVVEPKLP | 0.413 ± 0.97
30 | LLDMNANECYLPIWWQSEVT | 0.092 ± 0.96
31 | SSWLC | 1.4 ± 0.47
32 | MWAIFSLWVCSR | 1.35 ± 0.41
33 | FYGEGNFRGKTYVFTVPVVK | -1.21 ± 2.4
34 | VSLLVSICLLRLSLVSI | 0.259 ± 0.58
35 | DKPFCFILNYNSVYDCVMSV | 0.331 ± 1.2
36 | HCLSFMIFESNLIIFMNRIR | 0.222 ± 0.2
37 | IWYRQVCANLLSN | inactive
38 | YEQVNIRNG | 0.138 ± 0.87
39 | SLYLYMGWPSHWVESVLPYG | 0.043 ± 0.89
40 | FPCLTSSTSGYWSLI | 1.32 ± 0.12
41 | TDAPP | 0.126 ± 1.1
42 | IAIFMYCM | 7.467 ± 0.055
43 | FQHTLGRKA | 0.438 ± 0.68
44 | ITMVISLCALFMSRSIIFKG | -0.154 ± 1
45 | MILTTPAAERLLYYILPLRD | -0.616 ± 0.81
46 | FSCLNSFKRVFNFNIPASVC | -0.863 ± 1
47 | RKIVYVYEDVVRLNTCRISS | 0.034 ± 0.93
48 | YGTGMCHELCIDVTSWVMWM | -1.57 ± 0.79
49 | MNENCGFVKFVRSKKRFKDV | -0.287 ± 0.39
50 | LWLRLRFVCKYRV | 1.9 ± 0.59
51 | LVDSNFCVNVCAGQSRRVYG | -0.712 ± 0.8
52 | FKVVF | -0.909 ± 1.9

Row | Substance | amyloid nucleation score
53 | TFRQVPAQFNMASRDKNSTI | inactive
54 | FSFSIAMVNLVEDATVDCAG | -0.048 ± 0.31
55 | FCVRICNCRIWCLCSLTKSL | -0.624 ± 0.46
56 | IRRATF | 0.421 ± 0.84
57 | YIDIVGSSW | 4.83 ± 0.07
58 | SLEWLESCFSDAHIHTAH | -0.733 ± 1.9
59 | TFLIFDLN | 4.56 ± 0.062
60 | PSSLLNMDTTRGYHDPEWGI | -0.381 ± 0.3
61 | VHWRASCNMQLRADQRICIL | -0.84 ± 0.49
62 | YLFMMAIRGAKTLVS | inactive
63 | GNTSMILSPA | -0.511 ± 1.1
64 | LGWRSTFCMKYTSQSLSLPR | -0.221 ± 0.58
65 | CDSTVMRGLYCGRVVYSLFV | 0.721 ± 0.47
66 | ILFDLQPKFVRR | 0.693 ± 0.48
67 | FRSVSGNMYTLLFRIE | 1.62 ± 0.24
68 | DHVDYSILNYSPMFDCVKFC | 0.028 ± 0.27
69 | KENRFISQSDTALYSIKKQH | 0.549 ± 1
70 | LSYCVIG | inactive
71 | QLLFRRYKMGIVSRYSVITR | -0.339 ± 0.53
72 | YCQSSWMSSFSTEFHKARLN | 0.43 ± 0.39
73 | FKHDYKFEGVCRVNDFLMGF | -0.115 ± 0.9
74 | FCPNHHNCVISCEWHSGALR | 2.51 ± 0.13
75 | NEAMN | -0.21 ± 0.37
76 | EHFMSTCKPPDGE | 0.927 ± 0.84
77 | FYARMLYYA | inactive
78 | FAYGI | -0.633 ± 0.62

Row | Substance | amyloid nucleation score
79 | YSRTNMFQ | -0.649 ± 0.5
80 | DSWLVAESSIHAF | -0.049 ± 1.5
81 | YVWLMH | 3.7 ± 0.11
82 | KPLCLNYKCLYIILVCVGDP | 0.151 ± 0.27
83 | LWGWGFSSEANPIGGRGILN | 0.277 ± 0.53
84 | FVFSGFYT | 0.353 ± 0.21
85 | ECYGIR | 0.893 ± 0.26
86 | LSRSYYNQFLTDFKGSGTYM | -0.269 ± 0.64
87 | HMWSESQIVGRLYVYRNIVV | 0.747 ± 0.81
88 | GSTNERYAKNGTS | 0.32 ± 0.68
89 | HFSGYMFCNPLTSGIVNATW | 6.404 ± 0.045
90 | ISWVSPDLVLSYPVYQPDGL | 1.93 ± 0.23
91 | GVGEIVSNRFAIS | -0.409 ± 1
92 | SLLALLPLQYWVYRIKNLVH | -0.057 ± 1.5
93 | WYIVPITVNFQG | 6.54 ± 0.049
94 | CTSVRVLGSNQCSYGVSKCR | -0.39 ± 0.39
95 | FLGLNQLNFWFGAS | 7.845 ± 0.045
96 | DGLTLFLSRNGDYYSFTKIT | 0.197 ± 0.46
97 | SLFATGN | inactive
98 | VSNTHVNGGWSRRNGQWLGV | -0.708 ± 0.45
99 | LGDTVCVRYCR | 0.223 ± 0.37
100 | RWCVVSEKTFCINYTRLSFA | 0.888 ± 0.23
101 | DLVAVQESWTLYSLVPQLFY | -0.103 ± 0.4
102 | FLNNTGAQSKLFLDVSVRQG | -0.065 ± 0.86
103 | DIIWMFWRIINSPFFTQSVV | -0.176 ± 0.26
104 | PIFAVTKVQVMRPH | -1.94 ± 2.7

Row | Substance | amyloid nucleation score
105 | YDQNWMRTIDRVNH | -0.292 ± 0.5
106 | KSLVNNCDSVIAL | 0.506 ± 0.25
107 | IVFFWMMLVGLNRLGVNRVG | -0.846 ± 1.7
108 | YDLLSLGDTTCRHSEILNRP | 0.924 ± 0.63
109 | FPFAYGVSESQSSVIHVLDV | -0.063 ± 0.26
110 | RIAVWSSGSYCMYYTCWCNH | -0.191 ± 0.24
111 | LWVVRI | 0.67 ± 0.85
112 | TSRGSGSVWLDFFSHHGKIG | -0.218 ± 1.4
113 | ELTGFFFCVRTSKCRIW | 0.533 ± 0.46
114 | VYLSYVFMYS | -0.445 ± 0.36
115 | GNSSNAMKFEIHISSDHVAY | 0.845 ± 0.14
116 | IIRGVTAGALFYYFSVILLR | -0.214 ± 0.77
117 | YMQGAFFQQTPSNLWQEGHY | -0.74 ± 0.84
118 | SIFSSSEVGVQLYTMGG | 0.91 ± 0.62
119 | HCFYYCMANRL | 0.488 ± 0.24
120 | TGRVFLLYAAQ | -0.368 ± 0.88
121 | CSFFTKDSDTP | 0.327 ± 0.3
122 | VHRFQ | 0.108 ± 0.61
123 | YFLICSLWPYVLPYCVCRFV | -0.728 ± 0.5
124 | DYPRSIILCWHF | -1.39 ± 0.74
125 | LHSNGSD | inactive
126 | CTYTAPYAPSLMPGPRVGYI | inactive
127 | LVRTIVLNKRIMWMIQLCFK | 0.86 ± 0.63
128 | VNSGVNCMTVFVVVSLLSCG | 2.98 ± 0.11
129 | SFDYRENCPINTVIWLRLCK | 3.93 ± 0.098
130 | RLVESRLCASCVDGG | -0.166 ± 0.46

Row | Substance | amyloid nucleation score
131 | AFTPSWRTRLQMTTL | -0.386 ± 0.57
132 | VNEREPYNCCFMRFDTCTSP | 1.31 ± 0.63
133 | MVDMLVKMGYRLLGRYISMR | 0.942 ± 0.69
134 | TCSLNLYLDSDVFLCLCCLW | 5.65 ± 0.074
135 | ITMYANMNSGQFTMLESMPD | -0.303 ± 0.26
136 | GRTLVLDFTHHPPILRVPLR | 0 ± 0.48
137 | YRHTVIVY | 1.13 ± 0.21
138 | FFDYGDAWSFHRMNNWDVLY | -0.935 ± 0.62
139 | VFIIRRDLCWRTSFCLQQEL | 0.965 ± 0.18
140 | FLHFVYRI | -0.578 ± 1
141 | IKLNTEALESYLLVFRMKRW | -0.605 ± 0.46
142 | LTNRSLIVRDWCTSTYPNPS | 0.08 ± 0.53
143 | SWHLDWFTYPFNKSD | inactive
144 | ILHFWLTYK | 4.63 ± 0.1
145 | TDFPELWSNLFQPNGFRYGL | 0.114 ± 0.92
146 | TLLPIKHSCHGNWINQLYGT | -0.485 ± 0.32
147 | YDLNYKDCSLRSVSSVGLQC | 0.099 ± 0.19
148 | ATRRSCNLCLNLEFT | inactive
149 | GLMGLFVKWYNVVQIFQSRM | -0.437 ± 0.61
150 | AFTGQCEEKIS | -0.226 ± 0.42
151 | VQNKYRFTLY | 1.65 ± 0.33
152 | VVLCGDCFSLSLFWDCLWPF | 4.38 ± 0.078
153 | SSEVRMTVVSLGPLMDRPNV | -0.243 ± 0.68
154 | SHLTRDSILRVRVCWTNCVQ | -0.026 ± 0.59
155 | FTISSKLRYIGTGVINGPVD | -0.397 ± 0.56
156 | YCVSFLRSSLP | 3.39 ± 0.12

Row | Substance | amyloid nucleation score
157 | WEVRGHPSGLMEVRDLGVRF | 0.249 ± 0.59
158 | GKRIYPWVLNRSH | -0.209 ± 0.28
159 | CFSHVWVDLIDFYVRFVLFR | -0.209 ± 0.69
160 | YKGVGPIVIFIQWVYITVNN | 4.1 ± 0.11
161 | FRALKLEAIPAKVGAPYLVP | 0.045 ± 0.4
162 | NFSESFLTVNPQTTDVLKLH | -1.18 ± 1.5
163 | LVRGVHT | -0.446 ± 0.28
164 | AVRVLPSLNVGAGMRQVVFT | 0.693 ± 0.5
165 | GVNLRSNRESSVCDNWRGLR | 0.423 ± 0.42
166 | EVLKVSHSF | -0.009 ± 0.46
167 | NNRHGYFNFCWWKEFLVKRE | inactive
168 | WVIVASP | -1.42 ± 0.85
169 | LMSLEHELRVKS | inactive
170 | DSASL | 0.514 ± 0.79
171 | ACHCNIFFHR | 6.325 ± 0.058
172 | AIIERADLSGMPLFSGFPGD | -0.148 ± 0.8
173 | WTFTVVFFLKVSSL | 0.81 ± 0.78
174 | CSCEVNMRLIGCKK | -0.253 ± 1.2
175 | IGQFMVDWYNIGGREPVPGS | 0.301 ± 0.78
176 | LLNLYWFLSVPDTINLSHER | 8.087 ± 0.05
